Experimental data as given in IntAct's records for PubMed 23892456.

B1: Homeobox protein NANOG (Mus musculus), Q80Z64 (parent)
chain: MSVGLPGPHSLPSSEEASNSGNASSMPAVFHPENYSCLQGSATEMLCTEAASPRPSSEDLPLQGSPDSSTSPKQKLSSPEADKGPEEEENKVLARKQKMRTVFSQAQLCALKDRFQKQKYLSLQQMQELSSILNLSYKQVKTWFQNQRMKCKRWQKNQWLKTSNGLIQKGSAPVEYPSIHCSYPQGYLVNASGSLSMWGSQTWTNPTWSSQTWTNPTWNNQTWTNPTWSSQAWTAQSWNGQPWNAAPLHNFGEDFLQPYVQLQQNFSASDLEVNLEATRESHAHFSTPQALELFLNYSVTPPGEI

Variants of: B1
Conditions: with sox2_mouse Sox2, P48432
Chain of sox2_mouse Sox2, P48432 (P48432 whole entry): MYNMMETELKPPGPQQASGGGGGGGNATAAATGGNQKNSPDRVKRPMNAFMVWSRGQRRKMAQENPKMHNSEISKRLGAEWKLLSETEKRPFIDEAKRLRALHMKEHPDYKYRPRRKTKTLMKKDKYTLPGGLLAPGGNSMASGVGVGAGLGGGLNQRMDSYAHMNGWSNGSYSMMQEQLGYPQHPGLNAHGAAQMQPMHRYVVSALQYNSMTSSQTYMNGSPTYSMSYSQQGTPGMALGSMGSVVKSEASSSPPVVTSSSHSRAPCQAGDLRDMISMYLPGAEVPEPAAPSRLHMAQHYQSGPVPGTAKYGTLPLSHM

Variant | effect of a mutation on the interaction
W198A;W203A;W208A;W213A;W218A;W223A;W228A;W233A;W238A;W243A | disrupting interaction
